For orientation: stoichiometry N means a count of units in the complex or per binding partner.

The target in the assay is T1, recombinant full-length GST-UVR8 (Arabidopsis), Q9FN03.
T1 chain: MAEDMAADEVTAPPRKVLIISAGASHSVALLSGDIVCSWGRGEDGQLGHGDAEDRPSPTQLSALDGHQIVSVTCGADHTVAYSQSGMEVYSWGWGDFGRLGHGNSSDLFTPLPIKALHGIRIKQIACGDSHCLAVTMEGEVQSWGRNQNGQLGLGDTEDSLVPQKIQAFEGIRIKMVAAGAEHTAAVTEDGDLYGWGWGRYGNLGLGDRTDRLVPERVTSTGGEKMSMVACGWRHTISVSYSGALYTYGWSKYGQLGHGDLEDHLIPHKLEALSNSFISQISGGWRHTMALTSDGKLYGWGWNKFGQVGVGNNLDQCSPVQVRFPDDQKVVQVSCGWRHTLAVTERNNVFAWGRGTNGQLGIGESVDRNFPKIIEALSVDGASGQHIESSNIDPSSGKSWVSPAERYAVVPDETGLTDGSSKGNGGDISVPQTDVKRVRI
Briefly: SDS-PAGE of non-boiled protein. The conditions noted are these: remark: other sources report otherwise.

B1: recombinant full-length GST-UVR8, Q9FN03 1-440 (receptor)
chain: T1 chain
Turning to B1, the stoichiometry N was 2.

Values taken from article PMC7889724.
